Ends that are not written are not given here.
T1: residue mutated to A: P (also: biotinylated, attachment site not given here)
T1 construct: position from the legend (CFH1114-1121)
T1 peptide: GPPPAIDNGDITSFP

T2: residue mutated to A: I (also: biotinylated, attachment site not given here)
T2 construct: position from the legend (CFH1114-1121)
T2 peptide: GPPPPADNGDITSFP

T3: residue mutated to A: D (3rd column) (also: biotinylated, attachment site not given here)
T3 construct: position from the legend (CFH1114-1121)
T3 peptide: GPPPPIANGDITSFP

T4: residue mutated to A: G (also: biotinylated, attachment site not given here)
T4 construct: position from the legend (CFH1114-1121)
T4 peptide: GPPPPIDNADITSFP

T5: residue mutated to A: D (6th column) (also: biotinylated, attachment site not given here)
T5 construct: position from the legend (CFH1114-1121)
T5 peptide: GPPPPIDNGAITSFP

T6: residue mutated to A: T (also: biotinylated, attachment site not given here)
T6 construct: position from the legend (CFH1114-1121)
T6 peptide: GPPPPIDNGDIASFP

T7: residue mutated to A: N (also: biotinylated, attachment site not given here)
T7 construct: position from the legend (CFH1114-1121)
T7 peptide: GPPPPIDAGDITSFP


Assays:
residue mutated to A: P = target: T1, residue mutated to A: P; assay: ELISA on streptavidin-immobilized biotinylated 15mer peptides; area under the signal vs antibody concentration curve;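 note: antibody binding to each alanine-substituted peptide expressed relative to binding to the natural peptide, using curve area determined separately for every peptide-antibody pair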
residue mutated to A: I = target: T2, residue mutated to A: I; assay: as above
residue mutated to A: D [1] = target: T3, residue mutated to A: D; assay: as above
residue mutated to A: G = target: T4, residue mutated to A: G; assay: as above
residue mutated to A: D [2] = target: T5, residue mutated to A: D; assay: as above
residue mutated to A: T = target: T6, residue mutated to A: T; assay: as above
[3] = target: T8, reduced Complement Factor H (CFH treated with TCEP) (human, UniProt P08603 19-1231, disulfide bonds reduced with TCEP); assay: immunoblot (Surf-Blot), CFH treated with TCEP (reduced) before electrophoresis; anti-human IgG-HRP
T8 construct: also called reduced CFH; conformationally distinct form of CFH
T8 sequence (P08603 19-1231 limits assumed): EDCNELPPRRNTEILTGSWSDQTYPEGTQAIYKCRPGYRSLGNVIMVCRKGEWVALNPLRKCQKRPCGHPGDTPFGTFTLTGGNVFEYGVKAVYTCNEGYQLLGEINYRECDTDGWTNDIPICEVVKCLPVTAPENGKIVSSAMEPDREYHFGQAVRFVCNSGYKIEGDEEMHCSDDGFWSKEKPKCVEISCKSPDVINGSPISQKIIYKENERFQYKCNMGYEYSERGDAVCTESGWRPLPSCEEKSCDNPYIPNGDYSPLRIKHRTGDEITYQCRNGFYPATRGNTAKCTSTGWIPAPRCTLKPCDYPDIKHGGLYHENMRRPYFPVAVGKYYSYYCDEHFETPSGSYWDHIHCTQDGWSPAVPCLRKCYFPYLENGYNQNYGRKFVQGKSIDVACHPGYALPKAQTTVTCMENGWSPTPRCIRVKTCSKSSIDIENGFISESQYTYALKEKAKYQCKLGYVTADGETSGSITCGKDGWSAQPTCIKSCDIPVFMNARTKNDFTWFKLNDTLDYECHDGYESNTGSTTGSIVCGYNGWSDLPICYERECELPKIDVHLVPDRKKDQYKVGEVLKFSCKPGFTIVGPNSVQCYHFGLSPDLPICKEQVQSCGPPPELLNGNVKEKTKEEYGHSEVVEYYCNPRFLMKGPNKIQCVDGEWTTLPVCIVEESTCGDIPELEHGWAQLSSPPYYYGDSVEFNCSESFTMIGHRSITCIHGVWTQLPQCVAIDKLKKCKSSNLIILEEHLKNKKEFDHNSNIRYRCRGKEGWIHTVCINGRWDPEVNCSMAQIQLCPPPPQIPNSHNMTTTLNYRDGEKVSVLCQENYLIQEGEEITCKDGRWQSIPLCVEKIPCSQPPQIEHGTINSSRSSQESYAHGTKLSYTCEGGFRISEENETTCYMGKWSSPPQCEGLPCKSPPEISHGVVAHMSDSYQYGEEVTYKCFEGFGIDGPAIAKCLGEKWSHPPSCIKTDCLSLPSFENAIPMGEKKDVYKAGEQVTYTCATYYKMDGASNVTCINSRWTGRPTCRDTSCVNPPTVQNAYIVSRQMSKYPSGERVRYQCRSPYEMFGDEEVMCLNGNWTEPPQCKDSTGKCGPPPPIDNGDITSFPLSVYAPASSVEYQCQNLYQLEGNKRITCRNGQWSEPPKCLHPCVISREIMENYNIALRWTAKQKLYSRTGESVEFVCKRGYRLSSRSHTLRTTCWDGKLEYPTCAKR

[4] = target: T9, native Complement Factor H (CFH) (human, UniProt P08603 19-1231); assay: immunoblot (Surf-Blot), CFH treated with Tris-HCl (oxidized) before electrophoresis; anti-human IgG-HRP
T9 construct: Native, non-reduced CFH; also called native CFH; full-length native CFH
T9 sequence (P08603 19-1231 limits assumed): as above

residue mutated to A: N = target: T7, residue mutated to A: N; assay: ELISA on streptavidin-immobilized biotinylated 15mer peptides; area under the signal vs antibody concentration curve;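 note: antibody binding to each alanine-substituted peptide expressed relative to binding to the natural peptide, using curve area determined separately for every peptide-antibody pair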

Row | Binder | percent of binding to the natural peptide (AUC) (residue mutated to A: P) | percent of binding to the natural peptide (AUC) (residue mutated to A: I) | percent of binding to the natural peptide (AUC) (residue mutated to A: D [1]) | percent of binding to the natural peptide (AUC) (residue mutated to A: G) | percent of binding to the natural peptide (AUC) (residue mutated to A: D [2]) | percent of binding to the natural peptide (AUC) (residue mutated to A: T) | binding result [3] | binding result [4] | percent of binding to the natural peptide (AUC) (residue mutated to A: N)
1 | CFH mAb7968 (antibody, V domains shown, also called CBAb1) VH: LVESGGGVVQPGRSLRLSCAASGFTFSRYGMHWVRQAPGKGLEWVAVMSYDGSTKYYADSVKGRFAISRDNPKNTLFLQMNSLRPDDTAVYYCAKGGAAAAVMDVWGKGTTVTVSS VL: MTQSPDSLTVSLGERATISCKSSQRLLYSSNNKNYLAWYQQKPGQPPKLLMYWASTRESGVPDRFSGSGSGTDFSLTISSLQAEDVAVYYCQQYYNPPWTFGQGTKVEVK | 73% | 73% | 102% | 100% | 101% | 54% | – | – | –
2 | Ab7961/293i (antibody, V domains shown, Recombinant human mAb) VH: LVESGGGVVQPGKSLRLSCVASGFTFSSYGMHWVRQAPGKGLEWVAVMSFDGKTKYYADSVKGRFTISRDNPKNTLYLQMNSLRSEDTAVYYCAKGGAAAAVFDSWGQGILLTVSS VL: MTQSPNSLAVSLGGRATINCKTSQSILYRSNNKNYLAWYQHKSGQPPKLLIYWASTRESGVPDRFSGSGSRTDFTLTISGLQAEDVAVYYCQQYYNPPWTFGQGTKVEIK | 56% | 52% | 100% | 104% | 105% | 16% | binds | binds | –
3 | Ab7979 (antibody, V domains shown, Recombinant human mAb) VH: LVESGGGVVQPGKSLRLSCVASGFTFSTYGMHWVRQAPGKGLEWVAVMSFDGKTKYYADSVKGRFTISRDNPKNTLYLQMNSLRSEDTAVYYCAKGGAAAAVFDSWGQGILLTVSS VL: MTQSPNSLAVSLGGRATINCKTSQSILYRSNNKNYLAWYQHKPGQPPKLLIYWASTRESRVPDRFSGSGSRTDFTLTISGLQAEDVAVYYCQQYYNPPWTFGQGTKVEIK | 64% | 61% | 96% | 102% | 98% | – | binds | binds | 29%
4 | Ab7960/293i (antibody, V domains shown, Recombinant human mAb) VH: LVESGGGVVQPGKSLRLSCVASGFSFSTYGMHWVRQAPGKGLEWVAVMSFDGKTKYYADSVKGRFTISRDNPKNTLYLQMNSLRSEDTAVYYCAKGGAAAAVFDSWGPGILLTVSS VL: MTQSPNSLAVSLGGRATINCKASQSILYRSNNKNYLAWYQHKAGQPPKLLIYWASTRESGVPERFSGSGSRTDFTLTINGLQAEDVAVYYCQQYYNPPWTFGQGTKVEIK | 53% | 43% | 95% | 99% | 99% | – | binds | binds | –
5 | Ab7955 (antibody, V domains shown, Recombinant human mAb) VH: LVESGGGVVRPGRSLRLSCVASGFTFNAYGMHWVRQGPGKGLEWLAVISYEGKTVYYADSVKDRFTISRDNSRNTVSLHLNNLRGEDTAVYYCAKGSASAAVLQHWGQGTLVSVTS VL: MTQSPGSLAVSLGSRATINCKSSRSLLYRSNNKNYLAWYQQKPGQSPRLLIYWASSRESGVPDRFSGGGSGTSFTLTISSLQAEDVAVYYCQQYFNPPWTFGQGTKVEIK | 52% | – | 81% | 104% | 103% | – | – | – | –
6 | Ab7957/293i (antibody, V domains shown, Recombinant human mAb) VH: LVESGGGVVPPGKSLRLSCAASGFTFSLYGIHWVRQAPGKGLEWVAVISYDGNTKYYTDSVKGRFTISRDNAKNTIYLQMNSLRLDDTAVYYCAKGAANSATFDFWGRGTMVTVSS VL: MTQSPDSLTLSLGERATINCRSSRTVLYRSNNKNYLAWYQHKPGQPPKLLMSWASTRETGVPDRFSGSGSGTHFTLTITSLQPEDVAVYYCQQYYSPPWTFGQGTKVEIR | 61% | 61% | 100% | 99% | 102% | 48% | binds | binds | 30%
7 | Ab7964 (antibody, V domains shown, Recombinant human mAb) VH: LVESGGGVVQPGRSLRLSCAASGVTFSRYGMHWVRQAPGKGLEWVAVISYDEKTKYYADSVKGRFTISRDNSKNTLFLHMNRLRYEDTAVYYCAKGASSGAYFDYWGQGTLVTVSS VL: not shown | 74% | 76% | 100% | 100% | 102% | 66% | binds | binds | –

Reference: US20210061891A1 (DUKE UNIVERSITY, published 2021)
